Reference: US20170137520A1 (Merck Sharp & Dohme, published 2017)

T1: human CTLA-4 expressed on cell surface (hCTLA4-overexpressing CHO-K1 cells) (human, UniProt P16410 36-223)
T1 construct: The construct expressed in the cells is not described further; also called huCTLA-4+ CHO-K cells; CTLA-4+ CHO-K1 cells
T1 sequence: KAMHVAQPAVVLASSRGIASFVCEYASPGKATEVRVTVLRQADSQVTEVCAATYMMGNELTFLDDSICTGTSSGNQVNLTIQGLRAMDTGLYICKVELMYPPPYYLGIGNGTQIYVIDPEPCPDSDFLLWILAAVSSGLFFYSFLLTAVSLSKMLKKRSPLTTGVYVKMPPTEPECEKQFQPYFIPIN

T2: Cynomolgus CTLA-4-Fc (cynomolgus monkey, UniProt G7PL88 37-162)
T2 construct: also called cynomolgus monkey CTLA4-hFc; not shown: human Fc (hFc)
T2 sequence: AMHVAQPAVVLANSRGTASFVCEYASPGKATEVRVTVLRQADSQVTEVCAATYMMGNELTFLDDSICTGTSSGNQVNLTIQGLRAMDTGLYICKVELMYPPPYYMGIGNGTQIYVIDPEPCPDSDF

T3: Human CTLA-4-Fc (human, UniProt P16410 37-162, limits assumed)
T3 construct: also called human CTLA4-hFc; CTLA-4-Fc fusion molecule from human; not shown: human Fc (hFc)
T3 sequence: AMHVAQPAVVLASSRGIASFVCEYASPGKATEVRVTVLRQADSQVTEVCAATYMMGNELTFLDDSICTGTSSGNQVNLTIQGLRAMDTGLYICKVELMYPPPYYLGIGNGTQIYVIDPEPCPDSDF


Experiments:
[1] = target: T1, human CTLA-4 expressed on cell surface …; test: competition flow cytometry (cFACS) on CHO-K1 hCTLA4 cells against a fixed concentration (EC30) of hCD80-hFc; MedianFI (PE)
[2] = target: T1, human CTLA-4 expressed on cell surface …; test: competition flow cytometry (cFACS) on CHO-K1 hCTLA4 cells against a fixed concentration (EC30) of hCD80-hFc; bound ligand detected via its human IgG Fc; MedianFI (PE)
From the text: (§1) F023700906, a building block of F023700925, as well as F023701051, F023701054 and F023701061 blocked binding of human CTLA-4 to its ligands CD80 and CD86. Flow cytometry analysis of discovery batches of N73X variants (filled squares, filled triangles, filled triangles upside-down) of Nb F023700906 (filled circles) with fixed concentrations (EC30) of (A) hCD80-hFc or (B) hCD86-hFc on hCTLA4-overexpressing CHO-K1 cells. The ligands were detected via the human IgG Fc fusion protein. The flow cytometry data generated in this experiment are in FIG. 10 (A-B).

[3] = target: T1, human CTLA-4 expressed on cell surface …; test: competition flow cytometry (cFACS) on CHO-K1 hCTLA4 cells against a fixed concentration (EC30) of hCD86-hFc; MedianFI (PE)
[4] = target: T2, Cynomolgus CTLA-4-Fc; test: kinetic binding analysis on CTLA4-hFc; method not stated
Method: (§2) On-rate, off-rate and affinity were determined using human and cynomolgus monkey CTLA4-hFc (Table below).

[5] = target: T3, Human CTLA-4-Fc; test: as above
Method: as §2

[6] = target: T1, human CTLA-4 expressed on cell surface …; test: competition flow cytometry (cFACS) on CHO-K1 hCTLA4 cells against a fixed concentration (EC30) of hCD86-hFc; bound ligand detected via its human IgG Fc; MedianFI (PE)
From the text: as §1

IC50 (read off the curve) [1] [nM] | IC50 (read off the curve) [2] [nM] | IC50 (read off the curve) [3] [nM] | Kd [4] [nM] | koff [4] [s⁻¹] | kon [4] [M⁻¹ s⁻¹] | Kd [5] [nM] | koff [5] [s⁻¹] | kon [5] [M⁻¹ s⁻¹] | IC50 (read off the curve) [6] [nM] | Binder
~10 | ~10 | ~2 | 1.2 | 0.0057 | 4.7e+06 | 1.2 | 0.0059 | 4.8e+06 | ~2 | F023700906 Nanobody, CTLA4 binder 11F01 (L11V,A14P,Q45R,A74S,K83R,V89L,M96P,Q108L)-FLAG3-HIS6 (VHH, also called F02370906; Nb F023700906) VHH: EVQLVESGGGVVQPGGSLRLSCAASGGTFSFYGMGWFRQAPGKEREFVADIRTSAGRTYYADSVKGRFTISRDNSKNTVYLQMNSLRPEDTALYYCAAEPSGISGWDYWGQGTLVTVSS
~10 | ~10 | ~2 | – | – | – | – | – | – | ~2 | F023701051 [11F01 (L11V,A14P,Q45R,N73Q,A74S,K83R,V89L,M96P,Q108L)-FLAG3-HIS6] (VHH, name in Kabat numbering, N73 is Kabat numbering; also called F02371051) VHH: EVQLVESGGGVVQPGGSLRLSCAASGGTFSFYGMGWFRQAPGKEREFVADIRTSAGRTYYADSVKGRFTISRDQSKNTVYLQMNSLRPEDTALYYCAAEPSGISGWDYWGQGTLVTVSS
~10 | ~10 | ~2 | – | – | – | – | – | – | ~2 | F023701061 [11F01 (L11V,A14P,Q45R,N73Y,A74S,K83R,V89L,M96P,Q108L)-FLAG3-HIS6] (VHH, name in Kabat numbering, N73 is Kabat numbering) VHH: EVQLVESGGGVVQPGGSLRLSCAASGGTFSFYGMGWFRQAPGKEREFVADIRTSAGRTYYADSVKGRFTISRDYSKNTVYLQMNSLRPEDTALYYCAAEPSGISGWDYWGQGTLVTVSS
~10 | ~10 | ~2 | – | – | – | – | – | – | ~2 | F023701054 [11F01 (L11V,A14P,Q45R,N73T,A74S,K83R,V89L,M96P,Q108L)-FLAG3-HIS6] (VHH, name in Kabat numbering, N73 is Kabat numbering) VHH: EVQLVESGGGVVQPGGSLRLSCAASGGTFSFYGMGWFRQAPGKEREFVADIRTSAGRTYYADSVKGRFTISRDTSKNTVYLQMNSLRPEDTALYYCAAEPSGISGWDYWGQGTLVTVSS
